{
  "source": "patent US20080014204A1",
  "about": "(CRUCELL HOLLAND B V, published 2008)",
  "binders": {"B1": {"name": "CR03-014 (antibody, V domains shown)", "VH": "EVQLVESGGGLVQPGGSLRLSCAASGFTFSDHYMDWVRQAPGKGLEWVGRTRNKANSYTTEYAASVKGRFTISRDDSKNSLYLQMNSLKTEDTAVYYCARGISPFYFDYWGQGTLVTVSS", "VL": "not shown"}},
  "biological_target": "S318-510 fragment (amino acids 318-510 of the S protein of SARS-CoV strain Frankfurt 1) (SARS-CoV strain Frankfurt 1, UniProt P59594 318-510)",
  "note": "Where “and” joins values, the source holds several entries; their conditions need not be identical. Equal entries are not always repeated.",
  "data": [
    {"binder": "B1", "values": [
      {"measurement": "Kd", "value": "16.3 nM and 14.8 nM"}
    ]}
  ]
}
